Experimental data published in article PMC9482650, “Quantitative fragmentomics allow affinity mapping of interactomes” (Nature Communications, 2022).

Legend:
Experiment in all cases: holdup assay
Set-up in all cases: key: below the threshold = too weak to quantify, mostly under pKd 3.1 to 4
HTRA4, P83105 = target: T1, HTRA4, P83105
T1 sequence (P83105 378-476, limits assumed, looked up): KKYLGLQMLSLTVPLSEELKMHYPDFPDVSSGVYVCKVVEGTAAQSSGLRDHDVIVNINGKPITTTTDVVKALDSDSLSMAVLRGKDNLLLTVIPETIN

GRIP2_4, Q9C0E4 = target: GRIP2_4, Q9C0E4
GRIP2_4, Q9C0E4, sequence (Q9C0E4 446-548): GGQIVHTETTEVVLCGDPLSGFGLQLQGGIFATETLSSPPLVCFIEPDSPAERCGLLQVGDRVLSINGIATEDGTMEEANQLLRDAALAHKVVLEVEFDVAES

IL16_3, Q14005 = target: IL16_3, Q14005
IL16_3, Q14005, sequence (Q14005 1107-1207): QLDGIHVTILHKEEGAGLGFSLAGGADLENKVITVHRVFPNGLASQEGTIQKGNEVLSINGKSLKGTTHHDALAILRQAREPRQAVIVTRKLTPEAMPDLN

Inadl_1, Q8NI35 = target: Inadl_1, Q8NI35
Inadl_1, Q8NI35, sequence (Q8NI35 113-229): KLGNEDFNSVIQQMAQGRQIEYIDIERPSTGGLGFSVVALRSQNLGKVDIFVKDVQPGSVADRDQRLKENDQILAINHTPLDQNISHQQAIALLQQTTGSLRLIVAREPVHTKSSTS

MAST1, Q9Y2H9 = target: MAST1, Q9Y2H9
MAST1, Q9Y2H9, sequence (Q9Y2H9 962-1065): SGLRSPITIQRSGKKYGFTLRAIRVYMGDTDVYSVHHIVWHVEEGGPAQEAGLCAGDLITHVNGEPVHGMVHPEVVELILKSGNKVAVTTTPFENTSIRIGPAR

DFNB31_2, Q9P202 = target: T2, DFNB31_2, Q9P202
T2 sequence (Q9P202 274-371, limits assumed, looked up): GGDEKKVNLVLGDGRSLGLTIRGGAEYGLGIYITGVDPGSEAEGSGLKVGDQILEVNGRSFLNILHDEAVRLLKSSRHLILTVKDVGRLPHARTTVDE

MAGI2_2, Q86UL8 = target: MAGI2_2, Q86UL8
MAGI2_2, Q86UL8, sequence (Q86UL8 410-522): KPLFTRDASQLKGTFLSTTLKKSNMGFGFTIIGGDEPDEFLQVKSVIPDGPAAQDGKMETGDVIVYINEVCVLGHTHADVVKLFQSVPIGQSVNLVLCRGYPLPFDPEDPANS

FRMPD2_3, Q68DX3 = target: FRMPD2_3, Q68DX3
FRMPD2_3, Q68DX3, sequence (Q68DX3 1073-1166): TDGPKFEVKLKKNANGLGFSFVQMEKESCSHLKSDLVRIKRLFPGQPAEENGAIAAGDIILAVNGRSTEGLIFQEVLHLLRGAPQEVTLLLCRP

MPP7, Q5T2T1 = target: T3, MPP7, Q5T2T1
T3 sequence (Q5T2T1 134-230, limits assumed, looked up): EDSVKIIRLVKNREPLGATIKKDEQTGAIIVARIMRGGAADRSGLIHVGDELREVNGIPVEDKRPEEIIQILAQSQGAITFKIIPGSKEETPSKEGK

DLG3_2, Q92796 = target: T4, DLG3_2, Q92796
T4 sequence (Q92796 221-321, limits assumed, looked up): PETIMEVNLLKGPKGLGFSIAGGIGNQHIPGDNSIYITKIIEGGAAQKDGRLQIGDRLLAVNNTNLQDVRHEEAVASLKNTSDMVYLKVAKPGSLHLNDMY

LIN7C, Q9NUP9 = target: T5, LIN7C, Q9NUP9
T5 sequence (Q9NUP9 88-185, limits assumed, looked up): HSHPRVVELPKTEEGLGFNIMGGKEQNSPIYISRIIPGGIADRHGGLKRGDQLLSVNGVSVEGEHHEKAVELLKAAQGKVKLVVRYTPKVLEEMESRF

DLG3_3, Q92796 = target: T6, DLG3_3, Q92796
T6 sequence (Q92796 374-475, limits assumed, looked up): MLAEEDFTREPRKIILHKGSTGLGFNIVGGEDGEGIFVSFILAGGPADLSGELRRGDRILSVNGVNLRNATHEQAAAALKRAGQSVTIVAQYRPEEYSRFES

PDZD2_2, O15018 = target: T7, PDZD2_2, O15018
T7 sequence (O15018 329-429, limits assumed, looked up): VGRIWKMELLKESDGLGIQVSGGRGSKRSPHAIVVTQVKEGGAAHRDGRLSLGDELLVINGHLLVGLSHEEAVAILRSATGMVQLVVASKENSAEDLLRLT

MAGI2_5, Q86UL8 = target: MAGI2_5, Q86UL8
MAGI2_5, Q86UL8, sequence (Q86UL8 915-1017): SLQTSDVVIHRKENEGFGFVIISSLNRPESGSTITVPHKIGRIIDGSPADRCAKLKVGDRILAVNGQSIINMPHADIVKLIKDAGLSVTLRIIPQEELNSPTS

Inadl_6, Q8NI35 = target: Inadl_6, Q8NI35
Inadl_6, Q8NI35, sequence (Q8NI35 1058-1167): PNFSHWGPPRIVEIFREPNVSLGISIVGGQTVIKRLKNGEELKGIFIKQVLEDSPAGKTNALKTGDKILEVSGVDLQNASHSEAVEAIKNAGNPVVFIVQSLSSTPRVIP

PTPN13_1, Q12923 = target: T8, PTPN13_1, Q12923
T8 sequence (Q12923 1088-1188, limits assumed, looked up): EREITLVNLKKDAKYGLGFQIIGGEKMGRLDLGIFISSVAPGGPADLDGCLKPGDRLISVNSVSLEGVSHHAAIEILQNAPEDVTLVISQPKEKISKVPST

SCRIB_3, Q14160 = target: SCRIB_3, Q14160
SCRIB_3, Q14160, sequence (Q14160 999-1103): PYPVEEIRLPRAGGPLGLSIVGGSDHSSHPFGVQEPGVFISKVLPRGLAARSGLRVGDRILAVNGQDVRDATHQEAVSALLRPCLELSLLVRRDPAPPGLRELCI

NOS1, P29475 = target: NOS1, P29475
NOS1, P29475, sequence (P29475 9-101): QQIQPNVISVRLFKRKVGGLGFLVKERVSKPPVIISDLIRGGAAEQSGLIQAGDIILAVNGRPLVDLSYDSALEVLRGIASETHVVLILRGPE

TX1BP3, O14907 = target: T9, TX1BP3, O14907
T9 sequence (O14907 10-122, limits assumed, looked up): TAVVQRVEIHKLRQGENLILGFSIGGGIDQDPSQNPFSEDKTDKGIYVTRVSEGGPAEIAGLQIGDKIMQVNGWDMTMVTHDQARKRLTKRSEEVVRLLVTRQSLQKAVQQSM

Inadl_4, Q8NI35 = target: Inadl_4, Q8NI35
Inadl_4, Q8NI35, sequence (Q8NI35 547-651): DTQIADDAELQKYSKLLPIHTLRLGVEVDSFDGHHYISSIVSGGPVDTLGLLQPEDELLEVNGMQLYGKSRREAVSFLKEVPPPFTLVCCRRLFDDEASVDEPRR

DFNB31_3, Q9P202 = target: T10, DFNB31_3, Q9P202
T10 sequence (Q9P202 811-907, limits assumed, looked up): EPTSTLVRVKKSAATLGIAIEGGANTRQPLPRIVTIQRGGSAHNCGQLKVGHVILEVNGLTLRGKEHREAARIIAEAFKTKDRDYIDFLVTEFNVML

Inadl_5, Q8NI35 = target: Inadl_5, Q8NI35
Inadl_5, Q8NI35, sequence (Q8NI35 673-780): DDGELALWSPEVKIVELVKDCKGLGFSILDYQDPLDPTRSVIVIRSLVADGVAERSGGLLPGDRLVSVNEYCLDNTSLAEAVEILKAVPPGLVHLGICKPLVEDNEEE

RADIL, Q96JH8 = target: T11, RADIL, Q96JH8
T11 sequence (Q96JH8 971-1071, limits assumed, looked up): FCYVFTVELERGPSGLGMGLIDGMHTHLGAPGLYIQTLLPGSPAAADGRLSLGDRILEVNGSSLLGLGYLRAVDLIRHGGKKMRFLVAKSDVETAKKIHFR

LAP2, Q96RT1 = target: LAP2, Q96RT1
LAP2, Q96RT1, sequence (Q96RT1 other isoform, or with tags, fused parts or gaps): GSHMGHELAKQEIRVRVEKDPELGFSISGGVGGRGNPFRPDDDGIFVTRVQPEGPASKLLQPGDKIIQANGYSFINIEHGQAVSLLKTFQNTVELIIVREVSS

PICK1, Q9NRD5 = target: PICK1, Q9NRD5
PICK1, Q9NRD5, sequence (Q9NRD5 17-115): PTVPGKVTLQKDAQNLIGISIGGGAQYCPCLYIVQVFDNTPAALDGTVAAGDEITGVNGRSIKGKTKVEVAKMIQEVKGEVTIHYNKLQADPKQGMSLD

HTRA2, O43464 = target: HTRA2, O43464
HTRA2, O43464, sequence (O43464 355-458): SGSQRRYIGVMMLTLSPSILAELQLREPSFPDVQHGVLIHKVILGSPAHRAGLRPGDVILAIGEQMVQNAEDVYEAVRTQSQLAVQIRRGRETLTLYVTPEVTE

DLG4_3, P78352 = target: DLG4_3, P78352
DLG4_3, P78352, sequence (P78352 306-403): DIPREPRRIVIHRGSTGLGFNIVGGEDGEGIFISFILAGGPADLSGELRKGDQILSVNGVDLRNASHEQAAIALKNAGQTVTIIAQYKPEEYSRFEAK

[1] = plain residues with an end cap or a label only (N-terminal biotin on a linker: ado-ado)
[2] = modified: phospho on T at position -2 from the C-terminal residue

Binder: LSEFKAMDSF [CTNNA2, P26232]
- pKd (HTRA4, P83105; [1]): below the threshold
- pKd (GRIP2_4, Q9C0E4; [1]): below the threshold
- pKd (IL16_3, Q14005; [1]): below the threshold
- pKd (Inadl_1, Q8NI35; [1]): below the threshold
- pKd (MAST1, Q9Y2H9; [1]): below the threshold
- pKd (DFNB31_2, Q9P202; [1]): below the threshold
- pKd (MAGI2_2, Q86UL8; [1]): below the threshold
- pKd (FRMPD2_3, Q68DX3; [1]): below the threshold
- pKd (MPP7, Q5T2T1; [1]): below the threshold
- pKd (DLG3_2, Q92796; [1]): 4.16
- pKd (LIN7C, Q9NUP9; [1]): below the threshold
- pKd (DLG3_3, Q92796; [1]): below the threshold
- pKd (PDZD2_2, O15018; [1]): below the threshold
- pKd (MAGI2_5, Q86UL8; [1]): below the threshold
- pKd (Inadl_6, Q8NI35; [1]): below the threshold
- pKd (PTPN13_1, Q12923; [1]): below the threshold
- pKd (SCRIB_3, Q14160; [1]): below the threshold
- pKd (NOS1, P29475; [1]): below the threshold
- pKd (TX1BP3, O14907; [1]): below the threshold
- pKd (Inadl_4, Q8NI35; [1]): below the threshold
- pKd (DFNB31_3, Q9P202; [1]): below the threshold
- pKd (Inadl_5, Q8NI35; [1]): below the threshold
- pKd (RADIL, Q96JH8; [1]): below the threshold
- pKd (LAP2, Q96RT1; [1]): below the threshold
- pKd (PICK1, Q9NRD5; [1]): below the threshold
- pKd (HTRA2, O43464; [1]): below the threshold
- pKd (DLG4_3, P78352; [1]): below the threshold

Binder: SMLNRRTTPV [CACNG4, Q9UBN1]
- pKd (HTRA4, P83105; [1]): below the threshold
- pKd (GRIP2_4, Q9C0E4; [1]): below the threshold
- pKd (IL16_3, Q14005; [1]): below the threshold
- pKd (Inadl_1, Q8NI35; [1]): below the threshold
- pKd (MAST1, Q9Y2H9; [1]): 4.29
- pKd (DFNB31_2, Q9P202; [1]): below the threshold
- pKd (MAGI2_2, Q86UL8; [1]): 5.03
- pKd (FRMPD2_3, Q68DX3; [1]): below the threshold
- pKd (MPP7, Q5T2T1; [1]): below the threshold
- pKd (DLG3_2, Q92796; [1]): 4.46
- pKd (LIN7C, Q9NUP9; [1]): below the threshold
- pKd (DLG3_3, Q92796; [1]): 4.77
- pKd (PDZD2_2, O15018; [1]): below the threshold
- pKd (MAGI2_5, Q86UL8; [1]): below the threshold
- pKd (Inadl_6, Q8NI35; [1]): below the threshold
- pKd (PTPN13_1, Q12923; [1]): below the threshold
- pKd (SCRIB_3, Q14160; [1]): 4.11
- pKd (NOS1, P29475; [1]): 3.98
- pKd (TX1BP3, O14907; [1]): 4.85
- pKd (Inadl_4, Q8NI35; [1]): below the threshold
- pKd (DFNB31_3, Q9P202; [1]): below the threshold
- pKd (Inadl_5, Q8NI35; [1]): below the threshold
- pKd (RADIL, Q96JH8; [1]): below the threshold
- pKd (LAP2, Q96RT1; [1]): 3.49
- pKd (PICK1, Q9NRD5; [1]): below the threshold
- pKd (HTRA2, O43464; [1]): below the threshold
- pKd (DLG4_3, P78352; [1]): 4.85

Binder: RRVRKLPSTTL [RPS6KA1_-2P, Q15418]
- pKd (HTRA4, P83105; [2]): below the threshold
- pKd (GRIP2_4, Q9C0E4; [2]): below the threshold
- pKd (IL16_3, Q14005; [2]): below the threshold
- pKd (Inadl_1, Q8NI35; [2]): below the threshold
- pKd (MAST1, Q9Y2H9; [2]): below the threshold
- pKd (DFNB31_2, Q9P202; [2]): below the threshold
- pKd (MAGI2_2, Q86UL8; [2]): below the threshold
- pKd (FRMPD2_3, Q68DX3; [2]): below the threshold
- pKd (MPP7, Q5T2T1; [2]): below the threshold
- pKd (DLG3_2, Q92796; [2]): below the threshold
- pKd (LIN7C, Q9NUP9; [2]): below the threshold
- pKd (DLG3_3, Q92796; [2]): below the threshold
- pKd (PDZD2_2, O15018; [2]): below the threshold
- pKd (MAGI2_5, Q86UL8; [2]): below the threshold
- pKd (Inadl_6, Q8NI35; [2]): below the threshold
- pKd (PTPN13_1, Q12923; [2]): below the threshold
- pKd (SCRIB_3, Q14160; [2]): below the threshold
- pKd (NOS1, P29475; [2]): below the threshold
- pKd (TX1BP3, O14907; [2]): below the threshold
- pKd (Inadl_4, Q8NI35; [2]): below the threshold
- pKd (DFNB31_3, Q9P202; [2]): below the threshold
- pKd (Inadl_5, Q8NI35; [2]): below the threshold
- pKd (RADIL, Q96JH8; [2]): below the threshold
- pKd (LAP2, Q96RT1; [2]): below the threshold
- pKd (PICK1, Q9NRD5; [2]): below the threshold
- pKd (HTRA2, O43464; [2]): below the threshold
- pKd (DLG4_3, P78352; [2]): below the threshold

Binder: EEDTAEKDEL [HSPA5, P11021]
- pKd (HTRA4, P83105; [1]): below the threshold
- pKd (GRIP2_4, Q9C0E4; [1]): below the threshold
- pKd (IL16_3, Q14005; [1]): below the threshold
- pKd (Inadl_1, Q8NI35; [1]): below the threshold
- pKd (MAST1, Q9Y2H9; [1]): 3.98
- pKd (DFNB31_2, Q9P202; [1]): below the threshold
- pKd (MAGI2_2, Q86UL8; [1]): 3.48
- pKd (FRMPD2_3, Q68DX3; [1]): below the threshold
- pKd (MPP7, Q5T2T1; [1]): below the threshold
- pKd (DLG3_2, Q92796; [1]): below the threshold
- pKd (LIN7C, Q9NUP9; [1]): below the threshold
- pKd (DLG3_3, Q92796; [1]): below the threshold
- pKd (PDZD2_2, O15018; [1]): 3.53
- pKd (MAGI2_5, Q86UL8; [1]): below the threshold
- pKd (Inadl_6, Q8NI35; [1]): below the threshold
- pKd (PTPN13_1, Q12923; [1]): below the threshold
- pKd (SCRIB_3, Q14160; [1]): below the threshold
- pKd (NOS1, P29475; [1]): below the threshold
- pKd (TX1BP3, O14907; [1]): below the threshold
- pKd (Inadl_4, Q8NI35; [1]): below the threshold
- pKd (DFNB31_3, Q9P202; [1]): 4.19
- pKd (Inadl_5, Q8NI35; [1]): below the threshold
- pKd (RADIL, Q96JH8; [1]): below the threshold
- pKd (LAP2, Q96RT1; [1]): below the threshold
- pKd (PICK1, Q9NRD5; [1]): below the threshold
- pKd (HTRA2, O43464; [1]): below the threshold
- pKd (DLG4_3, P78352; [1]): below the threshold
